Test results: patent US20210284725A1 (Genentech, published 2021)

Columns and labels:
[1] = target: T1, cyno IL-33 (cynomolgus monkey, UniProt A0A2K5W3I1 112-269); test: cell-based or functional assay
T1 sequence: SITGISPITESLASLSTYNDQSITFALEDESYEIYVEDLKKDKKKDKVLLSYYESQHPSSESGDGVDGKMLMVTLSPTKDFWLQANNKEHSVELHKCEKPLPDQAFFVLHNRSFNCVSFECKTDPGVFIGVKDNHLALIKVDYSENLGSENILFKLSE

[2] = target: T2, human IL-33 (human, UniProt O95760 112-270, limits assumed); test: cell-based or functional assay
T2 sequence (looked up): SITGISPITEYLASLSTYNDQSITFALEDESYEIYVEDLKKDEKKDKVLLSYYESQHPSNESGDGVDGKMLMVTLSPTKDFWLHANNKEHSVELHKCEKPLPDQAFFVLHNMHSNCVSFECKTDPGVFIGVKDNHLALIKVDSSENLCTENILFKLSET

[3] = target: T3, human IL-33 (His-tagged) (human, UniProt O95760 112-270, limits assumed); test: SPR Biacore T200, antibody captured on anti-rat Fc, His-tagged IL-33 analyte, 25 C, 1:1 Langmuir
T3 construct: not shown: His tag
T3 sequence (looked up): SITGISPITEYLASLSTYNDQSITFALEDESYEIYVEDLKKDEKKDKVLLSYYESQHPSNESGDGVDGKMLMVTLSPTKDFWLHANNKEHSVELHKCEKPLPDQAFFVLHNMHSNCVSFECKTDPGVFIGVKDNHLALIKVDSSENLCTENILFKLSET
Description: (§1) The binding kinetics of top anti-IL-33 antibodies were measured using SPR on a BIACORE® T200 instrument (GE Healthcare). A CM5 Series S sensorchip was coated with anti-rat Fc (Jackson) to create a capture surface. Antibody binding was measured to human, cyno, rat, mouse and oxidized IL-33 (His-tagged) using a concentration series starting with 50 nM with 1:3 dilutions. Sensorgrams for binding of cytokine were recorded using an injection time of 2 min with a flow rate of 30 μl/min, at a temperature of 25° C., and with a running buffer of 10 mM HEPES, pH 7.4, 150 mM NaCl, 3 mM EDTA, and 0.005% TWEEN®20. After injection, disassociation of the IL-33 from the antibody was monitored for 10 min in running buffer. The surface was regenerated between binding cycles with a 30μ injection of 10 mM glycine HCl pH 1.7. After subtraction of a blank which contained running buffer only, sensorgrams observed for cytokine binding to anti-IL-33 antibody were analyzed using a 1:1 Langmuir binding model with software supplied by the manufacturer to calculate the kinetics and binding constants.

[4] = target: T4, mouse IL-33 (His-tagged) (mouse, UniProt Q8BVZ5 109-266); test: as above
T4 construct: also called murine IL-33; not shown: His tag
T4 sequence (looked up): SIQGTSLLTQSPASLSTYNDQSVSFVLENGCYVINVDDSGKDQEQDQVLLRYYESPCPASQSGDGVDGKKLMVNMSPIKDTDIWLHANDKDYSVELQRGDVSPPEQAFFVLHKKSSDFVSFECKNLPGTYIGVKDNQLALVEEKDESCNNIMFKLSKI
Description: as §1

[5] = target: T5, rat IL-33 (His-tagged) (rat, UniProt Q66H70 109-264, limits assumed); test: as above
T5 construct: not shown: His tag
T5 sequence (looked up): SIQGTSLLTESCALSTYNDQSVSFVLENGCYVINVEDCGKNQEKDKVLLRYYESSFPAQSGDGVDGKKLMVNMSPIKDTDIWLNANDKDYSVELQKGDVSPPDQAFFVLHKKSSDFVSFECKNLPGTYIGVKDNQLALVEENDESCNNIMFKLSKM
Description: as §1

[6] = target: T6, cyno IL-33 (His-tagged) (cynomolgus monkey, UniProt A0A2K5W3I1 112-269); test: as above
T6 construct: not shown: His tag
T6 sequence: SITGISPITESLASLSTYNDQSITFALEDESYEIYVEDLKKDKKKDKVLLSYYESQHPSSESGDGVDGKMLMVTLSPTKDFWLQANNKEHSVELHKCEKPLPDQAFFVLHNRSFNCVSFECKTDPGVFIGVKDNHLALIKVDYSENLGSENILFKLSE
Description: as §1

[7] = target: T2, human IL-33; test: cell-based or functional assay; remark: listed apart in the source
[8] = target: T3, human IL-33 (His-tagged); test: SPR Biacore T200, IgG captured on protein A chip, His-tagged human IL-33 analyte, 25 C, n=2; column head prints 'KD (nM)' but the E-notation cells are in M, unit corrected to M
Description: A protein A sensorchip (GE Healthcare) was used following manufacturer provided protocols to capture humanized anti-IL-33 antibodies using a BIACORE® T200 instrument (GE). Antibody binding was measured to human IL-33 (His-tagged) using multi-cycle kinetics. Sensorgrams for binding of IL-33 were recorded using an injection time of 2 min with a flow rate of 30 μl/min, at a temperature of 25° C., and with a running buffer of 10 mM HEPES, pH 7.4, 150 mM NaCl, 3 mM EDTA, and 0.005% TWEEN620. After injection, disassociation of IL-33 from the antibody was monitored for 10 min in running buffer. The surface was regenerated between binding cycles with a 30 μl injection of 10 mM Glycine HCl pH 1.5. After subtraction of a blank which contained running buffer only, sensorgrams observed for cytokine binding to anti-IL-33 antibody were analyzed using a 1:1 Langmuir binding model with software supplied by the manufacturer to calculate the kinetics and binding constants.

[9] = target: T3, human IL-33 (His-tagged); test: SPR Biacore 8k, Fab amine-coupled to CM5 chip, His-tagged IL-33 analyte, 25 C, 1:1 Langmuir
Description: (§2) The binding kinetics of the 1E1v8 Fab were measured using SPR on a BIACORE® 8k instrument (GE Healthcare). 1E1v8 Fab was directly immobilized on 4 different flow cells of a CM5 Series S sensorchip at low density using amine coupling. Antibody fragment binding was measured to human and cyno IL-33 (His-tagged) using a concentration series starting with 50 nM with 1:3 dilutions. Sensorgrams for binding of IL-33 were recorded using an injection time of 2 min with a flow rate of 100 μl/min, at a temperature of 25° C. or 35° C., and with a running buffer of 10 mM HEPES, pH 7.4, 150 mM NaCl, 3 mM EDTA, and 0.005% TWEEN®20. After injection, disassociation of the IL-33 from the antibody was monitored for 30 min in running buffer. The surface was regenerated between binding cycles with a 30 μl injection of 10 mM glycine HCl pH 1.7. After subtraction of a blank which contained running buffer only, sensorgrams observed for cytokine binding to anti-IL-33 antibody were analyzed using a 1:1 Langmuir binding model with software supplied by the manufacturer to calculate the kinetics and binding constants.

[10] = target: T6, cyno IL-33 (His-tagged); test: as above
Description: as §2

[11] = target: T3, human IL-33 (His-tagged); test: SPR Biacore 8k, Fab amine-coupled to CM5 chip, His-tagged IL-33 analyte, 35 C, 1:1 Langmuir
Description: as §2

[12] = target: T6, cyno IL-33 (His-tagged); test: as above
Description: as §2

B1: rat anti-human IL-33 hybridoma antibody 1E1 (antibody, V domains shown)
VH: EVQLVESGGGLVQPGTSLKLSCLASGFTFNNYWMTWIRQAPGKGLEWIASITYTGGGTYYPDSVKGRFTISRDDAKSTLYLQMNSLRSEDTATYYCTRANYYYNTYGGFPYWGQGTLVTVSS
VL: DIQMTQSPASLSASLGETVSIECLASEGFSNDLAWYQQKSGKSPQLLIYAASRLQDGVPSRFSGSGSGTRFSLKISGMQPEDEADYFCQQGSKYPLTFGSGTKLEIK
notes: Purified rat hybridoma IgG; also called clone 1E1; hybridoma derived clone 1E1
[1]
  IC50 (M), IL-33 neutralization activity, HEK-BLUE IL-33 cells (SEAP reporter), cyno IL-33 at 300 pM: 1.6e-10 M
[2]
  IC50 (M), IL-33 neutralization activity, HEK-BLUE IL-33 cells (SEAP reporter), human IL-33 at 160 pM: 3.6e-11 M
[3]
  Kd: 0.021 nM
  koff: 2.28e-05 s⁻¹
  kon: 1.08e+06 M⁻¹ s⁻¹
[4]
  Kd: 37.4 nM
  koff: 0.00213 s⁻¹
  kon: 56800 M⁻¹ s⁻¹
[5]
  Kd: 1.6 nM
  koff: 0.000219 s⁻¹
  kon: 140000 M⁻¹ s⁻¹
[6]
  Kd: 0.0392 nM
  koff: 2.24e-05 s⁻¹
  kon: 570000 M⁻¹ s⁻¹

B2: ch1E1 (antibody, V domains shown)
VH: EVQLVESGGGLVQPGTSLKLSCLASGFTFNNYWMTWIRQAPGKGLEWIASITYTGGGTYYPDSVKGRFTISRDDAKSTLYLQMNSLRSEDTATYYCTRANYYYNTYGGFPYWGQGTLVTVSS
VL: DIQMTQSPASLSASLGETVSIECLASEGFSNDLAWYQQKSGKSPQLLIYAASRLQDGVPSRFSGSGSGTRFSLKISGMQPEDEADYFCQQGSKYPLTFGSGTKLEIKR
[7]
  IC50 (M), IL-33 neutralization activity, HEK-BLUE IL-33 cells, human IL-33 at 160 pM: 2.9e-11 M
[8]
  Kd: 0.148 nM

B3: 1E1v12 (antibody, human IgG1, V domains shown)
VH: EVQLVESGGGLVQPGGSLRLSCAASGFTFNNYWMTWVRQAPGKGLEWVASITYTGGGTYYPDSVKGRFTISRDNAKSSLYLQMNSLRAEDTAVYYCTRANYYYNTYGGFPYWGQGTLVTVSS
VL: DIQMTQSPSSLSASVGDRVTITCLASEGFSNDLAWYQQKPGKAPKSLIYAASRLQDGVPSRFSGSGSGTDFTLTISSLQPEDFATYFCQQGSKYPLTFGGGTKVEIK
notes: Humanized 1E1 variant, human IgG1 backbone, expressed in Expi293F
[7]
  IC50 (M), IL-33 neutralization activity, HEK-BLUE IL-33 cells, human IL-33 at 160 pM: 2.44e-11 M
[8]
  Kd: 0.163 nM

B4: 1E1v20 (antibody, human IgG1, V domains shown)
VH: EVQLVESGGGLVQPGGSLRLSCAASGFTFNNYWMTWVRQAPGKGLEWVASITYTGGGTYYPDSVKGRFTISRDDAKSSLYLQMNSLRAEDTAVYYCTRANYYYNTYGGFPYWGQGTLVTVSS
VL: DIQMTQSPSSLSASVGDRVTITCLASEGFSNDLAWYQQKPGKAPKSLIYAASRLQDGVPSRFSGSGSGTDFTLTISSLQPEDFATYYCQQGSKYPLTFGGGTKVEIK
notes: as for B3
[7]
  IC50 (M), IL-33 neutralization activity, HEK-BLUE IL-33 cells, human IL-33 at 160 pM: 3.44e-11 M
[8]
  Kd: 0.128 nM

B5: 1E1v19 (antibody, human IgG1, V domains shown)
VH: EVQLVESGGGLVQPGGSLRLSCAASGFTFNNYWMTWIRQAPGKGLEWIASITYTGGGTYYPDSVKGRFTISRDDAKSSLYLQMNSLRAEDTAVYYCTRANYYYNTYGGFPYWGQGTLVTVSS
VL: DIQMTQSPSSLSASVGDRVTITCLASEGFSNDLAWYQQKPGKAPKSLIYAASRLQDGVPSRFSGSGSGTDFTLTISSLQPEDFATYYCQQGSKYPLTFGGGTKVEIK
notes: as for B3
[7]
  IC50 (M), IL-33 neutralization activity, HEK-BLUE IL-33 cells, human IL-33 at 160 pM: 3.19e-11 M
[8]
  Kd: 0.132 nM

B6: 1E1v13 (antibody, human IgG1, V domains shown)
VH: EVQLVESGGGLVQPGGSLRLSCAASGFTFNNYWMTWVRQAPGKGLEWIASITYTGGGTYYPDSVKGRFTISRDDAKSSLYLQMNSLRAEDTAVYYCTRANYYYNTYGGFPYWGQGTLVTVSS
VL: DIQMTQSPSSLSASVGDRVTITCLASEGFSNDLAWYQQKPGKAPKSLIYAASRLQDGVPSRFSGSGSGTDFTLTISSLQPEDFATYFCQQGSKYPLTFGGGTKVEIK
notes: as for B3
[7]
  IC50 (M), IL-33 neutralization activity, HEK-BLUE IL-33 cells, human IL-33 at 160 pM: 2.98e-11 M
[8]
  Kd: 0.14 nM

B7: 1E1v21 (antibody, human IgG1, V domains shown)
VH: EVQLVESGGGLVQPGGSLRLSCAASGFTFNNYWMTWVRQAPGKGLEWVASITYTGGGTYYPDSVKGRFTISRDDAKNSLYLQMNSLRAEDTAVYYCTRANYYYNTYGGFPYWGQGTLVTVSS
VL: DIQMTQSPSSLSASVGDRVTITCLASEGFSNDLAWYQQKPGKAPKSLIYAASRLQDGVPSRFSGSGSGTDFTLTISSLQPEDFATYYCQQGSKYPLTFGGGTKVEIK
notes: as for B3
[7]
  IC50 (M), IL-33 neutralization activity, HEK-BLUE IL-33 cells, human IL-33 at 160 pM: 3.1e-11 M
[8]
  Kd: 0.155 nM

B8: 1E1v8 Fab (Fab, V domains shown)
VH: EVQLVESGGGLVQPGGSLRLSCAASGFTFNNYWMTWIRQAPGKGLEWVASITYTGGGTYYPDSVKGRFTISRDDAKSSLYLQMNSLRAEDTAVYYCTRANYYYNTYGGFPYWGQGTLVTVSS
VL: DIQMTQSPSSLSASVGDRVTITCLASEGFSNDLAWYQQKPGKSPKLLIYAASRLQDGVPSRFSGSGSGTDFTLTISSLQPEDFATYFCQQGSKYPLTFGGGTKVEIK
notes: also called 1E1v8 human Fab; anti-IL-33 1E1v8 Fab
[9]
  Kd: 0.0147 nM
  koff: 9.99e-06 s⁻¹
  kon: 684000 M⁻¹ s⁻¹
[10]
  Kd: 0.0223 nM
  koff: 7.85e-06 s⁻¹
  kon: 354000 M⁻¹ s⁻¹
[11]
  Kd: 0.0148 nM
  koff: 1.26e-05 s⁻¹
  kon: 858000 M⁻¹ s⁻¹
[12]
  Kd: 0.0345 nM
  koff: 1.82e-05 s⁻¹
  kon: 527000 M⁻¹ s⁻¹
